Results from IntAct's records for PubMed 15328537.

B1: Emerin (Homo sapiens), P50402 (parent)
chain: MDNYADLSDTELTTLLRRYNIPHGPVVGSTRRLYEKKIFEYETQRRRLSPPSSSAASSYSFSDLNSTRGDADMYDLPKKEDALLYQSKGYNDDYYEESYFTTRTYGEPESAGPSRAVRQSVTSFPDADAFHHQVHDDDLLSSSEEECKDRERPMYGRDSAYQSITHYRPVSASRSSLDLSYYPTSSSTSFMSSSSSSSSWLTRRAIRPENRAPGAGLGQDRQVPLWGQLLLFLVFVIVLFFIYHFMQAEEGNPF

Variants of: B1
Details: with acts_rabit ACTA1, P68135

Variant | effect of a mutation on the interaction
Q133H | disrupting interaction
